The results in this text go back to article PMC5733030, “Characterizing Isozymes of Chlorite Dismutase for Water Treatment” (Frontiers in Microbiology, 2017).

Experiment in all cases: chloride ion selective electrode, initial rates, Michaelis-Menten fit
Holding throughout (conditions): 10 mM phosphate buffer pH 7.0, 21–23°C, soluble protein fraction

Substrate in data set [1]: [O-][Cl+]O
In kind it is biochemical, Ideonella dechloratans. From the text:
chloride ion selective electrode, initial rates, Michaelis-Menten fit on rIdCld

Substrate in data set [2]: [O-][Cl+]O
In kind it is biochemical, Nitrospira defluvii. The text has this: chloride ion selective electrode, initial rates, Michaelis-Menten fit on rNdCld

Substrate in data set [3]: [O-][Cl+]O
In kind it is biochemical, Nitrobacter winogradskyi. The text has this:
chloride ion selective electrode, initial rates, Michaelis-Menten fit on rNwCld

B1: rIdCld (Ideonella dechloratans) (protein)
chain: AMNTPVDRAKILSAPGVFVAFSTYKIRPDYFKVALAERKGAADEVMAVLEKHKEKVIVDAYLTRGYEAKSDYFLRVHAYDAVAAQAFLVDFRATRFGMYSDVTESLVGITKALNYISKDKSPDLNKGLSGATYAGDAPRFAFMIPVKKNADWWNLTDEQRLKEMETHTLPTLPFLVNVKRKLYHSTGLDDTDFITYFETNDLGAFNNLMLSLAKVPENKYHVRWGNPTVLGTIQPIENLVKTLSMGN
notes: recombinant, plasmid pET3a-Idcld (Dr. Rova) in E. coli BL21 (DE3); soluble protein fraction, not purified
As to B1, in data set [1], the Km worked out at 320 ± 160 µM.

B2: rNdCld (Nitrospira defluvii) (protein)
chain: ADREKLLTESGVYGTFATFQMDHDWWDLPGESRVISVAEVKGLVEQWSGKILVESYLLRGLSDHADLMFRVHARTLSDTQQFLSAFMGTRLGRHLTSGGLLHGVSKKPTYVAGFPESMKTELQVNGESGSRPYAIVIPIKKDAEWWALDQEARTALMQEHTQAALPYLKTVKRKLYHSTGLDDVDFITYFETERLEDFHNLVRALQQVKEFRHNRRFGHPTLLGTMSPLDEILEKFAQ
notes: recombinant, plasmid pET21b-Ndcld (Dr. Daims) in E. coli BL21 (DE3); soluble protein fraction, not purified
B2: the Km in data set [2] was determined as 2500 ± 470 µM.

B3: rNwCld (Nitrobacter winogradskyi Nb-255) (protein)
chain: MTFTVFTGGDSGAWSILSVAPVIGESLMAASHLAIAPSLSLGDTSATTPWQLRGVASHARYVERAEKIALTSVQAGLGRNEATRAALIPIRKSAAWWEMTQDERRAIFEDKSHHIAASLKYLPAIARQLYHCRDIGEPFDFLTWFEYAPEHATMFEDLVGVLRATEEWTYVEREVDIRLARAI
notes: recombinant, plasmid pET21b-Nwcld (Dr. Daims) in E. coli BL21 (DE3); soluble protein fraction, not purified
Turning to B3, in data set [3], the Michaelis-Menten constant (Km) turned out to be 380 ± 150 µM.

The term Km denotes the substrate concentration at which the rate is half of its maximum.
